# Experimental data taken from paper PMC9555226, “Microreactor equipped with naturally acid-resistant histidine ammonia lyase from an extremophile” (Materials advances, 2022).
# Substrate: N[C@@H](Cc1c[nH]cn1)C(=O)O
# Experiment: purified protein
# Format: biochemical, Thermoplasma acidophilum
# Conditions: 37 °C, pH 7.4, buffer A, free enzyme
protein,measurement,value
"TaHAL (Thermoplasma acidophilum histidine ammonia lyase) (Thermoplasma acidophilum DSM 1728) (protein, E. coli BL21(DE3), codon-optimized gene, pET28a; N-terminal His-SUMO tag cleaved with ULP1; ~55 kDa; homotetramer with MIO) MIEIDGRSLRVEDVYAVAVEYDRVSISDDTLKAVEEKHEAFLKLINSGKTVYGVNTGFGSLLNVHIERDQEIELQKNLIRSHSSGVGDYLENRYVRAIMAVRLNSLAAGYSAVSADLLNMMVEMLNRDVIPAVPKYGSVGASGDLAPLAHIGLAMMGEGKAFFEGRLMDSARALEKAGLKPYQFKEKEGVALINGTSFMSGILSIAVMDAHDILENAIRSALLSFEALGGTSKAFTPWILGARPHLGQVAIGNRFREYLTGSDIVKRADSVKVQDAYTLRCIPQVYGSVADVIDYVENVLSVEINSATDNPLFNGEEVVSGGNFHGEPVALAADFLAIALTDLGNMVERRIARLVDTNLSGLPPFLTPDSGLNSGYMIPQYTAAALCNRNKVLAYPSSADTIPTSANQEDHVSMGATGSLKLLEIIDNVRYIIAIEYLLGSQALEFTDKGMSPSTRKIYEKIREKVEKLDHDRPPSFDIETIRKMMDKKEFISALP",Km,45 ± 20 µM
same,kcat,1.01 ± 0.08 s⁻¹
same,kcat/Km,22400 ± 4000 M⁻¹ s⁻¹
